Results as given in patent US20200317768A1 (published 2020).

T1: cynomolgus monkey FcγRIIa1 extracellular domain, C-terminal His-tag (cynomolgus monkey)
T1 construct: also called cyno FcγRIIa1; cynoFcgRIIa1; not shown: His-tag added to C-terminus
T1 chain: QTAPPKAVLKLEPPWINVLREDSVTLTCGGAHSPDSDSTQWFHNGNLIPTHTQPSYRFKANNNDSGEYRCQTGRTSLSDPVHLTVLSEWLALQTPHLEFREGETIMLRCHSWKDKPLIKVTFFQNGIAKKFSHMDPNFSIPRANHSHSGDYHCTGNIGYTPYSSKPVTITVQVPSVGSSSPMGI

T2: human FcγRIIaH extracellular domain, C-terminal His-tag (human, UniProt P12318 34-217)
T2 construct: also called human FcγRIIa (type H); FcgRIIaH; not shown: His-tag added to C-terminus
T2 sequence: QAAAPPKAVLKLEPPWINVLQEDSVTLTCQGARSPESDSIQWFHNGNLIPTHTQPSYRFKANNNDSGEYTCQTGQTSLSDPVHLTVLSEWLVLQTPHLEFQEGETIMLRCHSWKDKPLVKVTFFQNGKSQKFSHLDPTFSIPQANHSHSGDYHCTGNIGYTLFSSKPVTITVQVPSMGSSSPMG

T3: human FcγRIIb extracellular domain, C-terminal His-tag (human, UniProt P31994 43-217)
T3 construct: also called FcgRIIb (human); not shown: His-tag added to C-terminus
T3 sequence: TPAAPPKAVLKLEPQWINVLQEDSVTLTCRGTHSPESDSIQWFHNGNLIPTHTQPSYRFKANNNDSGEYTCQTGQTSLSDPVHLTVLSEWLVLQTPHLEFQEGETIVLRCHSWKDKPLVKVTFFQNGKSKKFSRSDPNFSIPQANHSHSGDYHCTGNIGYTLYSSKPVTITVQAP

T4: cynomolgus monkey FcγRIIa2 extracellular domain, C-terminal His-tag (cynomolgus monkey)
T4 construct: also called cyno FcγRIIa2; cynoFcgRIIa2; not shown: His-tag added to C-terminus
T4 chain: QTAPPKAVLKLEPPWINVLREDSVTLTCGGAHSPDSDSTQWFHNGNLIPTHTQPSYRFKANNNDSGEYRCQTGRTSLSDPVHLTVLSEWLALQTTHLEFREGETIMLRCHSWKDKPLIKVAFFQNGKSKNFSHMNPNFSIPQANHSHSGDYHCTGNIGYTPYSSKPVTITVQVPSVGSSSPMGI

T5: cynomolgus monkey FcγRIIa3 extracellular domain, C-terminal His-tag (cynomolgus monkey)
T5 construct: also called cyno FcγRIIa3; cynoFcgRIIa3; not shown: His-tag added to C-terminus
T5 chain: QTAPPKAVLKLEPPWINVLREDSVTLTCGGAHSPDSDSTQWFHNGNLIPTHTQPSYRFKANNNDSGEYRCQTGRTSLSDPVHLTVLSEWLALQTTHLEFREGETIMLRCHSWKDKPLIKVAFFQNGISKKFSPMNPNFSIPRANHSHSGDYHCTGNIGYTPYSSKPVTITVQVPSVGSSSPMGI

T6: cynomolgus monkey FcγRIIb extracellular domain, C-terminal His-tag (cynomolgus monkey)
T6 construct: also called cyno FcγRIIb; cynoFcγRIIb; not shown: His-tag added to C-terminus
T6 chain: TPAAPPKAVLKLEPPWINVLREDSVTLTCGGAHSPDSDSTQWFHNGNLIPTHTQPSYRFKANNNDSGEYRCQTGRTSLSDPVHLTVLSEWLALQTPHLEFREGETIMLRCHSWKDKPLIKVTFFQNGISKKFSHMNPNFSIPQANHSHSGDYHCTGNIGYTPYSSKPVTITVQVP


Assays:
Test in all cases: SPR (Biacore), KD of SG1 / KD of variant;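 also: relative to parent M103205H795-SG1 carrying the SG1 human heavy chain constant region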
[1] = molecular target: T1, cynomolgus monkey FcγRIIa1 …
Procedure: (§1) The kinetic analysis of interactions between these antibodies and FcγR was carried out using BIACORE® T200 or BIACORE® 4000 (GE Healthcare). HBS-EP+ (GE Healthcare) was used as the running buffer, and the measurement temperature was set to 25° C. A chip produced by immobilizing Protein A. Protein A/G or mouse anti-human IgG kappa light chain (BD Biosciences) onto a Series S Sensor Chip CM4 or CM5 (GE Healthcare) by the amine-coupling method was used. […] After the measurement, the antibody captured on the chip was washed off by allowing reaction with 10 mM glycine-HCl, pH1.5 and 25 mM NaOH so that the chip was regenerated and used repeatedly. The sensorgrams obtained as measurement results were analyzed by the 1:1 Langmuir binding model using the BIACORE® Evaluation Software to calculate the binding rate constant ka (L/mol/s) and dissociation rate constant kd (l/s), and the dissociation constant KD (mol/L) was calculated from these values. […] Regarding such interactions, KD values were calculated using the following 1:1 binding model described in BIACORE® T100 Software Handbook BR1006-48 Edition AE.
(§2) The behavior of interacting molecules according to the 1:1 binding model on BIACORE® can be described by Equation 1: Req=C·R max/(KD+C)+RI, wherein, Req is a plot of steady-state binding levels to analyte concentration. C is concentration, RI is bulk refractive index contribution in the sample, and Rmax is analyte binding capacity of the surface. When this equation is rearranged, KD can be expressed as Equation 2: KD=C·Rmax/(Req−RI)−C. KD can be calculated by substituting the values of Rmax, RI, and C into Equation 1 or Equation 2. From the current measurement conditions, RI=0, C=2 μmol/L can be used.

[2] = molecular target: T7, cynomolgus monkey FcγRIIIaS extracellular domain, C-terminal His-tag (cynomolgus monkey, UniProt A3RFZ7 21-206 (rhesus entry))
T7 construct: also called cyno FcγRIIIaS; cynoFcγRIIIaS; not shown: His-tag added to C-terminus
Procedure: as §1, §2

[3] = molecular target: T2, human FcγRIIaH extracellular domain, …
Procedure: as §1, §2

[4] = molecular target: T8, human FcγRIIIaV extracellular domain, C-terminal His-tag (human, UniProt P08637 17-208)
T8 construct: also called FcgRIIIaV; not shown: His-tag added to C-terminus
Procedure: as §1, §2

[5] = molecular target: T3, human FcγRIIb extracellular domain, …
Procedure: as §1, §2

[6] = molecular target: T4, cynomolgus monkey FcγRIIa2 …
Procedure: as §1, §2

[7] = molecular target: T5, cynomolgus monkey FcγRIIa3 …
Procedure: as §1, §2

[8] = molecular target: T6, cynomolgus monkey FcγRIIb extracellular …
Procedure: as §1, §2

T7 sequence (A3RFZ7 21-206): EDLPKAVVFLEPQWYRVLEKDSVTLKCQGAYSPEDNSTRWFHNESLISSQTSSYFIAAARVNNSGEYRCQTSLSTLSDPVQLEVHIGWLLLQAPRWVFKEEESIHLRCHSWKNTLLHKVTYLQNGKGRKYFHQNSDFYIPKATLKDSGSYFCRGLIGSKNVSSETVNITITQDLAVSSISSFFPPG
T8 sequence (P08637 17-208 F176V): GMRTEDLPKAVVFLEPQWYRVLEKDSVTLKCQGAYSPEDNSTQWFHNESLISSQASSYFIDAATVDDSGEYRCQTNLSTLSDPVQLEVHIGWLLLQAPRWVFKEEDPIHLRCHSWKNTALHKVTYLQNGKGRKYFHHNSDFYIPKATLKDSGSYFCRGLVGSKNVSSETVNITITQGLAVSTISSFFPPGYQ

Row | Binder | KD fold (SG1 = 1) [1] | KD fold (SG1 = 1) [2] | KD fold (SG1 = 1) [3] | KD fold (SG1 = 1) [4] | KD fold (SG1 = 1) [5] | KD fold (SG1 = 1) [6] | KD fold (SG1 = 1) [7] | KD fold (SG1 = 1) [8]
1 | MS_M103205H795-SG1/M103202L889-SK1 (antibody, human IgG1, kappa, Parent antibody; also called MS1032LO06-SG1) heavy: not shown light: DIVMTQSPATLSLSPGERATLSCTSSQSVYHANWLSWFQQKPGQPPKLLIYWASTLAYGVPSRFSGSGSGTDFTLTISSLQPEDAATYYCAGGYGGGRYAFGQGTKVEIKRTVAAPSVFIFPPSDEQLKSGTASVVCLLNNFYPREAKVQWKVDNALQSGNSQESVTEQDSKDSTYSLSSTLTLSKADYEKHKVYACEVTHQGLSSPVTKSFNRGEC | 1 fold | 1 fold | 1 fold | 1 fold | 1 fold | 1 fold | 1 fold | 1 fold
2 | M103205H795-MY142/M103202L889-SK1 (antibody, human IgG1, kappa) heavy: QVTLKESGPVLVKPTETLTLTCTVSGIDLSHDDISWVRQAPGKGLEWVGIISYAGSTYYASWAKGRLTISKDTSKNQVVLTMTNMDPVDTATYYCARGVPAYSHGGDLWGQGTLVTVSSASTKGPSVFPLAPSSKSTSGGTAALGCLVKDYFPEPVTVSWNSGALTSGVHTFPAVLQSSGLYSLSSVVTVPSSSLGTQTYICNVNHKPSNTKVDKKVEPKSCDKTHTCPPCPAPELLEGPSVFLFPPKPKDTLMISRTPEVTCVVVDVSEEDPEVKFNWYVDGVEVHNAKTKPREEQYNSTYRVVSVLTVLHQDWLNGKEYKCKVSNKALPAPIEKTISKAKGQPREPQVYTLPPSREEMTKNQVSLTCLVKGFYPSDIAVEWESNGQPENNYKTTPMVLDSDGSFFLYSKLTVDKSRWQQGNVFSCSVMHEALHNHYTQKSLSLSP light: DIVMTQSPATLSLSPGERATLSCTSSQSVYHANWLSWFQQKPGQPPKLLIYWASTLAYGVPSRFSGSGSGTDFTLTISSLQPEDAATYYCAGGYGGGRYAFGQGTKVEIKRTVAAPSVFIFPPSDEQLKSGTASVVCLLNNFYPREAKVQWKVDNALQSGNSQESVTEQDSKDSTYSLSSTLTLSKADYEKHKVYACEVTHQGLSSPVTKSFNRGEC | 0.8 fold | 2.57 fold | 3.6 fold | 1.4 fold | 4.8 fold | 1 fold | 0.7 fold | 1 fold

Now from value to binder:

Row | KD fold (SG1 = 1) [1] | KD fold (SG1 = 1) [2] | KD fold (SG1 = 1) [3] | KD fold (SG1 = 1) [4] | KD fold (SG1 = 1) [5] | KD fold (SG1 = 1) [6] | KD fold (SG1 = 1) [7] | KD fold (SG1 = 1) [8] | Binder
3 | 2.9 fold | 1.29 fold | 18.6 fold | 0.52 fold | 6.3 fold | 3.9 fold | 5.9 fold | 8.9 fold | M103205H795-MY143/M103202L889-SK1 (antibody, human IgG1, kappa) heavy: QVTLKESGPVLVKPTETLTLTCTVSGIDLSHDDISWVRQAPGKGLEWVGIISYAGSTYYASWAKGRLTISKDTSKNQVVLTMTNMDPVDTATYYCARGVPAYSHGGDLWGQGTLVTVSSASTKGPSVFPLAPSSKSTSGGTAALGCLVKDYFPEPVTVSWNSGALTSGVHTFPAVLQSSGLYSLSSVVTVPSSSLGTQTYICNVNHKPSNTKVDKKVEPKSCDKTHTCPPCPAPELLSGPSVFLFPPKPKDTLMISRTPEVTCVVVDVSEEDPEVKFNWYVDGVEVHNAKTKPREEQYNSTYRVVSVLTVLHQDWLNGKEYKCKVSNKALPAPIEKTISKAKGQPREPQVYTLPPSREEMTKNQVSLTCLVKGFYPSDIAVEWESNGQPENNYKTTPMVLDSDGSFFLYSKLTVDKSRWQQGNVFSCSVMHEALHNHYTQKSLSLSP light: DIVMTQSPATLSLSPGERATLSCTSSQSVYHANWLSWFQQKPGQPPKLLIYWASTLAYGVPSRFSGSGSGTDFTLTISSLQPEDAATYYCAGGYGGGRYAFGQGTKVEIKRTVAAPSVFIFPPSDEQLKSGTASVVCLLNNFYPREAKVQWKVDNALQSGNSQESVTEQDSKDSTYSLSSTLTLSKADYEKHKVYACEVTHQGLSSPVTKSFNRGEC
4 | 5.1 fold | 0.16 fold | 1.2 fold | 0.06 fold | 9.2 fold | 7.4 fold | 8.9 fold | 9.5 fold | M103205H795-MY209/M103202L889-SK1 (antibody, human IgG1, kappa) heavy: QVTLKESGPVLVKPTETLTLTCTVSGIDLSHDDISWVRQAPGKGLEWVGIISYAGSTYYASWAKGRLTISKDTSKNQVVLTMTNMDPVDTATYYCARGVPAYSHGGDLWGQGTLVTVSSASTKGPSVFPLAPSSKSTSGGTAALGCLVKDYFPEPVTVSWNSGALTSGVHTFPAVLQSSGLYSLSSVVTVPSSSLGTQTYICNVNHKPSNTKVDKKVEPKSCDKTHTCPPCPAPELLNGPSVFLFPPKPKDTLMISRTPEVTCVVVDVSDEDPEVKFNWYVDGVEVHNAKTKPREELYNSTYRVVSVLTVLHQDWLNGKEYKCKVSNTALPKPIEKTISKAKGQPREPQVYTLPPSREEMTKNQVSLTCLVKGFYPSDIAVEWESNGQPENNYKTTPPVLDSDGSFFLYSKLTVDKSRWQQGNVFSCSVMHEALHNHYTQKSLSLSP light: DIVMTQSPATLSLSPGERATLSCTSSQSVYHANWLSWFQQKPGQPPKLLIYWASTLAYGVPSRFSGSGSGTDFTLTISSLQPEDAATYYCAGGYGGGRYAFGQGTKVEIKRTVAAPSVFIFPPSDEQLKSGTASVVCLLNNFYPREAKVQWKVDNALQSGNSQESVTEQDSKDSTYSLSSTLTLSKADYEKHKVYACEVTHQGLSSPVTKSFNRGEC
5 | 3.2 fold | 0.2 fold | 8.5 fold | 0.18 fold | 1.6 fold | 4.3 fold | – | 5.5 fold | M103205H795-MY280/M103202L889-SK1 (antibody, human IgG1, kappa) heavy: QVTLKESGPVLVKPTETLTLTCTVSGIDLSHDDISWVRQAPGKGLEWVGIISYAGSTYYASWAKGRLTISKDTSKNQVVLTMTNMDPVDTATYYCARGVPAYSHGGDLWGQGTLVTVSSASTKGPSVFPLAPSSKSTSGGTAALGCLVKDYFPEPVTVSWNSGALTSGVHTFPAVLQSSGLYSLSSVVTVPSSSLGTQTYICNVNHKPSNTKVDKKVEPKSCDKTHTCPPCPAPELLVGPSVFLFPPKPKDTLMISRTPEVTCVVVDVSDEDPEVKFNWYVDGVEVHNAKTKPREELYNSTYRVVSVLTVLHQDWLNGKEYKCKVSNKALPKPIEKTISKAKGQPREPQVYTLPPSREEMTKNQVSLTCLVKGFYPSDIAVEWESNGQPENNYKTTPPVLDSDGSFFLYSKLTVDKSRWQQGNVFSCSVMHEALHNHYTQKSLSLSP light: DIVMTQSPATLSLSPGERATLSCTSSQSVYHANWLSWFQQKPGQPPKLLIYWASTLAYGVPSRFSGSGSGTDFTLTISSLQPEDAATYYCAGGYGGGRYAFGQGTKVEIKRTVAAPSVFIFPPSDEQLKSGTASVVCLLNNFYPREAKVQWKVDNALQSGNSQESVTEQDSKDSTYSLSSTLTLSKADYEKHKVYACEVTHQGLSSPVTKSFNRGEC
